Patent publication US9181340B2, “TEM8 antibodies, conjugates thereof, and their use” (The United States of America, as represented by the …, priority 2011, dated 2015)

T1: purified recombinant hTEM8(ED)-Fc fusion protein (Homo sapiens, UniProt Q9H6X2)
T1 sequence (Q9H6X2 33-321): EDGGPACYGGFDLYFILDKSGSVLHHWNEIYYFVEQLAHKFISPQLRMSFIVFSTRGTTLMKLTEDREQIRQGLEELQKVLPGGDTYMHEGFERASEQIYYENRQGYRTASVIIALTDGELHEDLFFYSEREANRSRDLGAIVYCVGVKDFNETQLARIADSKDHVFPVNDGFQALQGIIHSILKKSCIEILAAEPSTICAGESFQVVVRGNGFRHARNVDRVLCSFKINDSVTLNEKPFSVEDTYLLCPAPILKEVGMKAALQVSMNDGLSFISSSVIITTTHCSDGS

B1: L5 Fab: fully human anti-TEM8 Fab from phage display; VH SEQ ID NO: 4, VL SEQ ID NO: 9; Fab chains SEQ ID NOs: 30, 31 (antibody)
heavy: QVQLVESGGGLVQPGGSLRLSCAASGFTFNSYGLSWVRQAPGKGLEWVSNISSNGSYTYYADSVKGRFTISRDNSKNTLYLQMNSLRAEDTAVYYCARAGYGLFDVWGQGTLVTVSSAKTTAPSVYPLAPVCGDTTGSSVTLGCLVKGYFPEPVTLTWNSGSLSSGVHTFPAVLQSDLYTLSSSVTVTSSTWPSQSITCNVAHPASSTKVDKKIEPRGPTIKPCPPCKCPAPNLLGGPSVFIFPPKIKDVLMISLSPIVTCVVVDVSEDDPDVQISWFVNNVEVHTAQTQTHREDYNSTLRVVSALPIQHQDWMSGKEFKCKVNNKDLPAPIERTISKPKGSVRAPQVYVLPPPEEEMTKKQVTLTCMVTDFMPEDIYVEWTNNGKTELNYKNTEPVLDSDGSYFMYSKLRVEKKNWVERNSYSCSVVHEGLHNHHTTKSFSRTPGK
light: DIELTQPPSVSVAPGQTARISCSGDKLREYYVHWYQQKPGQAPVLVIYGDNKRPSGIPERFSGSNSGNTATLTISGTQAEDEADYYCSSWAGSRSGTVFGGGTKLTVLGQPKSTPTLTVFPPSSEELKENKATLVCLISNFSPSGVTVAWKANGTPITQGVDTSNPTKEGNKFMASSFLHLTSDQWRSHNSFTCQVTHEGDTVEKSLSPAECL
modifications: Antibody sequence
B2: L1 Fab: fully human anti-TEM8 Fab from phage display; VH SEQ ID NO: 2, VL SEQ ID NO: 7; Fab chains SEQ ID NOs: 26, 27 (antibody)
heavy: QVQLVESGGGLVQPGGSLRLSCAASGFTFNSYAMSWVRQAPGKGLEWVSLISSGSSTYYADSVKGRFTISRDNSKNTLYLQMNSLRAEDTAVYYCARAGFKFDNWGQGTLVTVSSASTKGPSVFPLAPSSKSTSGGTAALGCLVKDYFPEPVTVSWNSGALTSGVHTFPAVLQSSGLYSLSSVVTVPSSSLGTQTYICNVNHKPSNTKVDKKVEPKSEF
light: DIELTQPPSVSVAPGQTARISCSGDSIPNYSVSWYQQKPGQAPVLVIYADSNRPSGIPERFSGSNSGNTATLTISGTQAEDEADYYCQSYDNTSPDLVFGGGTKLTVLGQPKAAPSVTLFPPSSEELQANKATLVCLISDFYPGAVTVAWKADSSPVKAGVETTTPSKQSNNKYAASSYLSLTPEQWKSHRSYSCQVTHEGSTVEKTVAPTEA
modifications: Antibody sequence
B3: L3 Fab: fully human anti-TEM8 Fab from phage display; VH SEQ ID NO: 3, VL SEQ ID NO: 8; Fab chains SEQ ID NOs: 28, 29 (antibody)
heavy: QVQLQQSGPGLVKPSQTLSLTCAISGDSVSTNGAAWGWIRQSPGRGLEWLGRIYYRSKWYNDYAVSVKSRITINPDTSKNQFSLQLNSVTPEDTAVYYCARMPGGFLFDLWGQGTLVTVSSASTKGPSVFPLAPSSKSTSGGTAALGCLVKDYFPEPVTVSWNSGALTSGVHTFPAVLQSSGLYSLSSVVTVPSSSLGTQTYICNVNHKPSNTKVDKKVEPKSEF
light: DIELTQPPSVSVAPGQTARISCSGDNIRSYYAHWYQQKPGQAPVLVIYGDSKRPSGIPERFSGSNSGNTATLTISGTQAEDEADYYCSSYASHDYVFGGGTKLTVLGQPKAAPSVTLFPPSSEELQANKATLVCLISDFYPGAVTVAWKADSSPVKAGVETTTPSKQSNNKYAASSYLSLTPEQWKSHRSYSCQVTHEGSTVEKTVAPTEA
modifications: Antibody sequence
B4: L2 Fab: fully human anti-TEM8 Fab from phage display; VH SEQ ID NO: 1, VL SEQ ID NO: 6; Fab chains SEQ ID NOs: 24, 25 (antibody)
heavy: QVQLKESGPALVKPTQTLTLTCTFSGFSLSTSGGGVSWIRQPPGKALEWLAHIYSNDDKSYSTSLKTRLTISKDTSKNQVVLTMTNMDPVDTATYYCARGGYFLDYWGQGTLVTVSSAKTTAPSVYPLAPVCGDTTGSSVTLGCLVKGYFPEPVTLTWNSGSLSSGVHTFPAVLQSDLYTLSSSVTVTSSTWPSQSITCNVAHPASSTKVDKKIEPRGPTIKPCPPCKCPAPNLLGGPSVFIFPPKIKDVLMISLSPIVTCVVVDVSEDDPDVQISWFVNNVEVHTAQTQTHREDYNSTLRVVSALPIQHQDWMSGKEFKCKVNNKDLPAPIERTISKPKGSVRAPQVYVLPPPEEEMTKKQVTLTCMVTDFMPEDIYVEWTNNGKTELNYKNTEPVLDSDGSYFMYSKLRVEKKNWVERNSYSCSVVHEGLHNHHTTKSFSRTPGK
light: DIELTQPPSVSVAPGQTARISCSGDNIGGIYVHWYQQKPGQAPVLVIYADSKRPSGIPERFSGSNSGNTATLTISGTQAEDEADYYCQSYDITSLVFGGGTKLTVLGQPKSTPTLTVFPPSSEELKENKATLVCLISNFSPSGVTVAWKANGTPITQGVDTSNPTKEGNKFMASSFLHLTSDQWRSHNSFTCQVTHEGDTVEKSLSPAECL
modifications: Antibody sequence
B5: 1D2 Fab: fully human anti-TEM8 Fab from phage display; VH SEQ ID NO: 5, VL SEQ ID NO: 10; Fab chains SEQ ID NOs: 32, 33 (antibody)
heavy: QVQLKESGPALVKPTQTLTLTCTFSGFSLSTSGMGVSWIRQPPGKALEWLAHINLDDDKYYSTSLKTRLTISKDTSKNQVVLTMTNMDPVDTATYYCARGGYGDMDVWGQGTLVTVSSASTKGPSVFPLAPSSKSTSGGTAALGCLVKDYFPEPVTVSWNSGALTSGVHTFPAVLQSSGLYSLSSVVTVPSSSLGTQTYICNVNHKPSNTKVDKKVEPKSEF
light: DIELTQPPSVSVAPGQTARISCSGDNIRSMFVHWYQQKPGQAPVLVIYADNKRPSGIPERFSGSNSGNTATLTISGTQAEDEADYYCSSYDYNAHLVVFGGGTKLTVLGQPKAAPSVTLFPPSSEELQANKATLVCLISDFYPGAVTVAWKADSSPVKAGVETTTPSKQSNNKYAASSYLSLTPEQWKSHRSYSCQVTHEGSTVEKTVAPTEA
modifications: Antibody sequence

What follows are molecules tested against T2, human TEM8 (293/Flag-hTEM8 cells) (Homo sapiens, UniProt Q9H6X2) (assay: Flow cytometry / immunofluorescence binding to 293/Flag-hTEM8 cells). Conditions: immunofluorescence staining and flow cytometry.
T2 construct: expressed in transfected cells
Protocol: 293 cells were obtained from ATCC. 293 cells were cultured in DMEM supplemented with 10% FBS. 293 cells expressing mouse (293-mTEM8) or a flag-tagged human TEM8 (293/Flag-huTEM8) were generated by lipofectamine 2000 mediated stable transfection of 293 cells with a mTEM8/pcDNA3 or a Flag-huTEM8/pcDNA3 expression vector (Yang et al., Biochim Biophys Acta 1813(1):39-49, 2011).
(§1) Trypsinized cells were rinsed in cold PBS/0.5% BSA (PBS/BSA) and labeled with anti-TEM8 Fabs (human) or full IgG (human-mouse) primary antibodies in PBS/BSA containing 10% goat serum at 4° C. Cells were rinsed with PBS/BSA and incubated with FITC-conjugated goat anti-human Fab or anti-mouse IgG secondary antibodies (Jackson Immunoresearch, West Grove, Pa.), rinsed again, and analyzed on a FACScalibur flow cytometer (Becton Dickinson, Franklin Lakes, N.J.) using CellQuest™ Software.

T2 sequence (Q9H6X2 33-564): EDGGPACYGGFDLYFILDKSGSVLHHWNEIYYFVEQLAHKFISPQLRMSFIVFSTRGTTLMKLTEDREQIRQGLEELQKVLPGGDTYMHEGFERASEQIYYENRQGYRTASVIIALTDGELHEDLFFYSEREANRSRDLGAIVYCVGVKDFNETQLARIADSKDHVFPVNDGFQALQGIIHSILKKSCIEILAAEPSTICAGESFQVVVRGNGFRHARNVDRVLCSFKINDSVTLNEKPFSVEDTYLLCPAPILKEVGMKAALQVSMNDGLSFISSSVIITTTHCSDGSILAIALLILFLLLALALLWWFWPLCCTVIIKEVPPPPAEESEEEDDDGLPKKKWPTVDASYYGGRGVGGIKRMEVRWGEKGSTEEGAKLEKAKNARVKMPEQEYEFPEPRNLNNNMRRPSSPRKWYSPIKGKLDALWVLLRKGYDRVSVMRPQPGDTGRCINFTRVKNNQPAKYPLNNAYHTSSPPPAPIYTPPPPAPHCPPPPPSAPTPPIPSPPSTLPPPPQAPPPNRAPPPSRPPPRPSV

Row | Molecule | binding to cells expressing human TEM8
1 | B1 | react
2 | B2 | react
3 | B3 | react
4 | B4 | react
5 | B5 | react

The molecules below were run against T3, mouse TEM8 (293/mTEM8 cells) (Mus musculus, UniProt Q9CZ52) (assay: Flow cytometry binding to 293/mTEM8 cells). Conditions: not given.
T3 construct: expressed in transfected cells
Protocol: 293 cells were obtained from ATCC. 293 cells were cultured in DMEM supplemented with 10% FBS. 293 cells expressing mouse (293-mTEM8) or a flag-tagged human TEM8 (293/Flag-huTEM8) were generated by lipofectamine 2000 mediated stable transfection of 293 cells with a mTEM8/pcDNA3 or a Flag-huTEM8/pcDNA3 expression vector (Yang et al., Biochim Biophys Acta 1813(1):39-49, 2011). Because transfected cells expressed variable levels of TEM8 (see 293/mTEM8 cells in FIG. 8C) they were subsequently enriched for surface expression by florescence activated cell sorting (FACS) using anti-AF344 (293/mTEM8) (Yang et al., Biochim Biophys Acta 1813(1):39-49, 2011) or anti-FLAG antibodies (293/Flag-hTEM8) (M2 clone, Sigma).
as §1

T3 sequence (Q9CZ52 31-562): as the sequence (Q9H6X2 33-564) above, with K40R, R104S, S241A, I297V, A327V, N458S, A468T, T471P, P493A counted along it

Row | Molecule | binding to cells expressing mouse TEM8
6 | B1 | react
7 | B2 | react
8 | B3 | react
9 | B4 | react
10 | B5 | react

Each molecule was assayed against TEM8 (CHO-TEM8 cells), binding of Anthrax PA (Homo sapiens, UniProt Q9H6X2) (assay: not given). Conditions: not given.

Row | Molecule | blocking of PA-FITC binding to CHO-TEM8 cells
11 | B1 | neutralize binding of PA to its cell surface receptor, TEM8
12 | B2 | neutralize binding of PA to its cell surface receptor, TEM8
13 | B3 | neutralize binding of PA to its cell surface receptor, TEM8
14 | B4 | neutralize binding of PA to its cell surface receptor, TEM8

These molecules were tested on HCT-116 tumors (assay: not given). Conditions: mouse, in vivo.

Row | Molecule | body weight in HCT116 tumor-bearing mice
15 | O=c1[nH]cc(F)c(=O)[nH]1 [Antibody 5-FU, 5-fluorouracil] | small, albeit non-significant, reduction in body weight
16 | CCc1c2c(nc3ccc(OC(=O)N4CCC(N5CCCCC5)CC4)cc13)-c1cc3c(c(=O)n1C2)COC(=O)[C@]3(O)CC [IRT, irinotecan] | small, albeit non-significant, reduction in body weight

The molecules below were run against T1, purified recombinant hTEM8(ED)-Fc fusion protein (assay: ELISA of Fabs on TEM8(ED)-Fc). Conditions: not given.

Row | Molecule | reactivity with TEM8 protein in ELISA
17 | B1 | react
18 | B2 | react
19 | B3 | react
20 | B4 | react
21 | B5 | react
